Reference: patent US20190263899A1 (Novartis, published 2019)

T1: C-terminally 3×FLAG-1×HA-tagged mouse MINION (Mus musculus) (UniProt Q2Q5T5)
T1 sequence: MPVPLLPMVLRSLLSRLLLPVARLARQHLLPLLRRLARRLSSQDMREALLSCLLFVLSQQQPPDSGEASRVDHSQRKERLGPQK

B1: Synaptopodin 2-like protein (protein, UniProt Q8BWB1 1-975, looked up)
Synaptopodin 2-like protein: MGAEEEVQVTLAGGAPWGFRLQGGTEQRKPLQIRRRSQAGRAGLRERDQLLAINGVSCTNFSHASAMTLIDASGRQLVLTVRRVTDEGSVRSPSPGELQVLSPLSPLSPEPPGAPVSQALQPTSLRSPPDSEAYYGETDSDVDGPATQEKPRRTRRRGPARPSLPGAPPDEVYLSDSPAEPAPVKTGSPSQGDSRVSSPSWEEGAALQPPPAEALLLPHGPLRPGPHLIPMVGPVPHPVAEDLTTTYTQKAKQAKLQRAESLQEKSVKEARTKCRTIASLLTAAPNPHSKGVLMFKKRRQRAKKYTLVSFGAAAGTGTEEEDGIPPTSESELDEETFSDARSLTNQSDWDSPYLDMELARAGLGTAESQNSGLGGQLSEVSGRGVQLFEQQRQRVASSSQELAQVGPAAMLNGQSLQSPPRAQSAPPEAAVLPLSPLSVPAVSPTPFFPDGGAPIPAPSIFNRSARPFTPGLQGQRSGTTSVIFRPLAPKKVNEGLGSTSPAPSPFAAPPQGPTPLPSFTTVVPSHTPVSGASSSTQRSSGPVTATSSLYIPAPSRPVTPGGAPEPPTPPSAAAMTSTASIFLSTPLRNSARPEAPGPAVPEPASVREQRISVPAARTGILQEARRRGTRKQMFRPGKEETKNSPNPELLSLVQNLDEKPRAGGAESGPEEDALSLGAEACNFMQPLGGRSYKTLPQVSPKTPPPMAPKTPPPTTPKTPPPVAPKPGSRGLLDGLVNGSTPMVGIPEPPRLQGRGGELFAKRQSRADRYVVEATSGSSLNPGLRPRSPSPTPSLPPSWKYSPNIRAPPPIAYNPLLSPFFPQAARTLPNKAQSQGPRVTPKQGIKALDFMRHQPYQLKTAMFCFDEGSSTPGPTSGPPKTARVQEIRRFSTPAPQPTAEPLAPTVLVPRAATTLDEPIWRAELASTPVPNPDHQESLRSFAAAPSSCGFQVARPRFSATRTGLQAHVWRPGAGHQ
B2: C-terminally 3×FLAG-1×HA-tagged mouse MINION (other)
chain: T1 sequence
notes: Construct of the mouse MINION CDS (84 aa isoform) expressed from the pCIGAR retroviral vector; The AP-MS text only says 'FLAG-tagged Minion'; also called FLAG-tagged Minion; 3F1H-tagged mouse MINION; not shown: C-terminal 3×FLAG-1×HA tag

Key:
[1] = biological target: T1, C-terminally 3×FLAG-1×HA-tagged mouse MINION (Mus musculus); assay: AP-MS, FLAG-tagged Minion bait, differentiating C2C12 myoblasts
Gapdh = biological target: T2, Gapdh (mouse, UniProt P16858 1-333); assay: Western blot of the FLAG-tagged Minion affinity purification
T2 construct: also called glyceraldehyde-3-phosphate dehydrogenase
T2 sequence (P16858 whole entry): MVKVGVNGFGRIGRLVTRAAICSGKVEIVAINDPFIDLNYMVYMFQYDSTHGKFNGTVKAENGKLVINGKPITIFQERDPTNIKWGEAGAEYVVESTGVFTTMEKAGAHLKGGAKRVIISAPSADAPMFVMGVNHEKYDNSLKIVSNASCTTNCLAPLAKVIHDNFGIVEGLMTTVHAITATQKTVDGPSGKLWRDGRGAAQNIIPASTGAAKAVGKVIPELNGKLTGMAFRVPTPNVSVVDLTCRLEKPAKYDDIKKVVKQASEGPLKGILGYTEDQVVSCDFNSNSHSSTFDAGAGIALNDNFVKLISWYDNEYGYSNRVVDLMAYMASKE

Molecule	Sequence Coverage (%) [1] [%]	Unique Peptide [1]	binding result (Gapdh)
ATP synthase subunit beta, mitochondrial (from UniProt P56480 47-529) (enzyme)	77	26	
ATPase family AAA domain-containing protein 1 (from UniProt Q9D5T0 1-361) (enzyme)	30	7	
Acetolactate synthase-like protein (from UniProt Q8BU33 1-632) (enzyme)	32	10	
Adenylate kinase isoenzyme 4, mitochondrial (from UniProt Q9WUR9 1-223)	52	6	
Aldehyde dehydrogenase family 3 member B1 (from UniProt Q80VQ0 1-465) (enzyme)	46	15	
Apolipoprotein O-like (from UniProt Q78IK4 28-265)	49	9	
B-cell receptor-associated protein 31 (from UniProt Q61335 2-245)	27	7	
Calcium uniporter protein, mitochondrial (from UniProt Q3UMR5 50-350)	38	12	
Calsequestrin-2 (from UniProt O09161 20-415)	24	9	
Cluster of Guanine nucleotide-binding protein G(s) subunit alpha isoforms short	34	9	
Cluster of Myc box-dependent-interacting protein 1 (from UniProt O08539 2-588)	42	16	
Coproporphyrinogen-III oxidase, mitochondrial (from UniProt P36552 99-443) (enzyme)	52	19	
Cytochrome b-c1 complex subunit 1, mitochondrial (from UniProt Q9CZ13 35-480)	41	13	
Cytoplasmic dynein 1 heavy chain 1 (from UniProt Q9JHU4 2-4644)	46	157	
Cytoskeleton-associated protein 5 (from UniProt A2AGT5 1-2032)	8	13	
DnaJ homolog subfamily C member 16 (from UniProt Q80TN4 26-772)	19	9	
Dysferlin (from UniProt Q9ESD7 1-2090)	13	17	
Eukaryotic initiation factor 4A-II (from UniProt P10630 1-407)	53	9	
Inositol 1,4,5-trisphosphate receptor type 3 (from UniProt P70227 1-2670)	6	11	
Isovaleryl-CoA dehydrogenase, mitochondrial (from UniProt Q9JHI5 31-424) (enzyme)	49	16	

Molecule	Sequence Coverage (%) [1] [%]	Unique Peptide [1]	binding result (Gapdh)
Junctional sarcoplasmic reticulum protein 1 (from UniProt Q3MI48 1-332)	53	8	
NADH dehydrogenase [ubiquinone] 1 alpha subcomplex subunit 10, mitochondrial (from UniProt Q99LC3 36-355) (enzyme)	24	7	
NADH dehydrogenase [ubiquinone] flavoprotein 1, mitochondrial (from UniProt Q91YT0 21-464) (enzyme)	24	7	
NADH-ubiquinone oxidoreductase 75 kDa subunit, mitochondrial (from UniProt Q91VD9 24-727) (enzyme)	20	9	
Nascent polypeptide-associated complex subunit alpha, muscle-specific form (from UniProt P70670 1-2187)	18	23	
Signal recognition particle 68 kDa protein (from UniProt Q8BMA6 1-625)	25	11	
Sorbin and SH3 domain-containing protein 2 (from UniProt Q3UTJ2 1-1180)	7	6	
Syntaxin-8 (from UniProt O88983 1-236)	19	4	
T-complex protein 1 subunit alpha	52	20	
T-complex protein 1 subunit beta (from UniProt P80314 2-535)	55	20	
T-complex protein 1 subunit theta (from UniProt P42932 2-548)	48	22	
Trifunctional enzyme subunit alpha, mitochondrial (from UniProt Q8BMS1 37-763)	66	33	
Trifunctional enzyme subunit beta, mitochondrial (from UniProt Q99JY0 35-475)	68	22	
Tripartite motif-containing protein 72 (from UniProt Q1XH17 1-477)	55	16	
Vacuolar protein sorting-associated protein 45 (from UniProt P97390 1-570)	15	7	
Very long-chain specific acyl-CoA dehydrogenase, mitochondrial (from UniProt P50544 42-656) (enzyme)	57	26	
Voltage-dependent anion-selective channel protein 1 (from UniProt Q60932 1-296)	15	10	
B1	8	5	
B2			no binding
